Where no end group is shown, it is not given here.
T1: eGFP-gephyrin (UniProt Q03555 1-768)
T1 construct: gephyrin; source: COS-7 cells, expressed, cells fixed; 'mammalian cells' for the test of SyliteCy3
T1 sequence (looked up): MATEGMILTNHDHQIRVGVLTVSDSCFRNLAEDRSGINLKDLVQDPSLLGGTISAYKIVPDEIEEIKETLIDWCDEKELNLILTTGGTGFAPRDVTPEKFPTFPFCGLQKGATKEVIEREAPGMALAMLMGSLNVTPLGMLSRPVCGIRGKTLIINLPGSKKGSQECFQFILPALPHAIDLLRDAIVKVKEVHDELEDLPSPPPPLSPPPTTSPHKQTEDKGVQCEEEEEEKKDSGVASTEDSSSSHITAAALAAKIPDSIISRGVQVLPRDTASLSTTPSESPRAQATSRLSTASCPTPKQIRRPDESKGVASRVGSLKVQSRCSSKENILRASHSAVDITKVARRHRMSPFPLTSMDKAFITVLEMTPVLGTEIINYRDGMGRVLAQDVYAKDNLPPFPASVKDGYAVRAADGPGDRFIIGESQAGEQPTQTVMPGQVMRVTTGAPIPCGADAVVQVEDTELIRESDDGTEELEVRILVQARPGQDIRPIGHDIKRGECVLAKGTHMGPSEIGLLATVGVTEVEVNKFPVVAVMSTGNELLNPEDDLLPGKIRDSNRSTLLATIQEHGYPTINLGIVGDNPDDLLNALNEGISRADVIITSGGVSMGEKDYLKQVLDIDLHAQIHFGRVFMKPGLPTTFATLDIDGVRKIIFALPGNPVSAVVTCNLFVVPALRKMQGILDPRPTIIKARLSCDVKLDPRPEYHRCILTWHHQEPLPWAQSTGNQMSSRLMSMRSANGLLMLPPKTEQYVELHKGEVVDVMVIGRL

B1: SyliteM (peptide)
chain: FSIVGSYPRRRRRRRRR
modifications: also: fluorophore
B2: Sylite (peptide)
chain 1: YSIVGSYPRKC(maleimide‑Cy5)
chain 2: YSIVGSYPR
modifications: also: two chains joined via linker, linkage not given here
B3: gephyrin E domain (domain or fragment)
chain: SSKENILRASHSAVDITKVARRHRMSPFPLTSMDKAFITVLEMTPVLGTEIINYRDGMGRVLAQDVYAKDNLPPFPASVKDGYAVRAADGPGDRFIIGESQAGEQPTQTVMPGQVMRVTTGAPIPCGADAVVQVEDTELIRESDDGTEELEVRILVQARPGQDIRPIGHDIKRGECVLAKGTHMGPSEIGLLATVGVTEVEVNKFPVVAVMSTGNELLNPEDDLLPGKIRDSNRSTLLATIQEHGYPTINLGIVGDNPDDLLNALNEGISRADVIITSGGVSMGEKDYLKQVLDIDLHAQIHFGRVFMKPGLPTTFATLDIDGVRKIIFALPGNPVSAVVTCNLFVVPALRKMQGILDPRPTIIKARLSCDVKLDPRPEYHRCILTWHHQEPLPWAQSTGNQMSSRLMSMRSANGLLMLPPKTEQYVELHKGEVVDVMVIGRL

Assays:
eGFP-gephyrin = molecular target: T1, eGFP-gephyrin; assay: immunostaining of cells or tissue; fixed COS-7 cells expressing eGFP-gephyrin or eGFP alone, stained with the fluorescent probes (50 nM Sylite); probe signal at eGFP-rich regions; details: one partner purified
Sylite = molecular target: B2; assay: ITC; Sylite or SyliteM titrated with purified gephyrin E domain; N=3; details: both partners purified
SyliteM = molecular target: B1; assay: as above; details: both partners purified

B1
signal-to-background ratio (SBR) (eGFP-gephyrin): 36

B2
signal-to-background ratio (SBR) (eGFP-gephyrin): 492

B3
Kd (Sylite): 17.5 nM | stoichiometry N (Sylite): 2 gephyrin E domain per probe | Kd (SyliteM): 205 nM
